In patent publication US20230374090A1 (SURROZEN OPERATING, published 2023):

T1: human ASGR1 (human, UniProt P07306 62-291, limits assumed)
T1 construct: also called asialoglycoprotein receptor 1; hASGR1
T1 sequence (looked up): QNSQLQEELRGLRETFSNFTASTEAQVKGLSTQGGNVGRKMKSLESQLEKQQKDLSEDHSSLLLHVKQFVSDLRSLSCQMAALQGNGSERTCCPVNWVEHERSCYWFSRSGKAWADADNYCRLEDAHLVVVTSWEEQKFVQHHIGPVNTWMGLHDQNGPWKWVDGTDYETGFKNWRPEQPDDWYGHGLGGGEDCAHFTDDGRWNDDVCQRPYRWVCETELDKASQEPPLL

T2: HuASGR1-CBD_P07306_154-291 (human)
T2 construct: also called human ASGR1-CBD
T2 chain: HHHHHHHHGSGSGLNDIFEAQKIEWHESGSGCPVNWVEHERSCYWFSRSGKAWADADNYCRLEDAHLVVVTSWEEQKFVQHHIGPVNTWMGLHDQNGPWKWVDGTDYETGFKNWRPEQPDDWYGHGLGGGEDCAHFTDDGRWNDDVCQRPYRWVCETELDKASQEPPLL


Columns and labels:
[1] = biological target: T1, human ASGR1; experiment: kinetic binding to human ASGR1, IgG1 format; method and unit inferred
[2] = biological target: T2, HuASGR1-CBD_P07306_154-291; experiment: size-exclusion chromatography of the mixed proteins (1.1:1 molar ratio)
Protocol: Purified […] and 8M24 Fab were mixed at 1.1:1 molar ratio (little excess of the HuASGR1-CBD), and incubated with carboxy-peptidase A and B at a w/w ratio of 100:1 for over-night at 4° C. Complex formation was confirmed by observation of a single-major peak on SuperdexS200 Increase (10/300 GL) column pre-equilibrated in HBS. Fractions containing complexes were further checked by SDS-PAGE and concentrated to ˜20 mg/mL for crystallization screens. […] 96-well plate crystal screening experiments were periodically monitored manually via a DiscoveryV20 stereomicroscope (Zeiss USA), and crystals were frozen for data collection by plunging into liquid nitrogen in the presence of various cryo-protectants (typically 15 to 30% v/v of glycerol or ethyleneglycol). […] Structure of HuASGR1-CBD:8M24 complex was determined by molecular replacement method using Phaser [Phaser crystallographic software. McCoy A J, Grosse-Kunstleve R W, Adams P D, Winn M D, Storoni L C, and Read R J. (2007) J Appl Crystallogr 40, 658-674] with poly-alanine model of published structure of ASGR1-CBD [PDB code: SJPV; Efficient Liver Targeting by Polyvalent Display of a Compact Ligand for the Asialoglycoprotein Receptor. […]

Row | Kd [1] | binding result [2] | Binder
1 | 0.00573 nM | – | 8M24 humanized L1H1 (antibody, V domains shown, also called 8M24 humanized 1) VH: EVQLVQSGAEVKKPGSSVKVSCKASGYTFTNYGINWVRQAPGQGLEWMGEIFPRSDNTFYAQKFQGRVTITADKSTSTAYMELSSLRSEDTAVYYCARKGRDYGTSHYFDYWGQGTTVTVSS VL: DIQMTQSPSSLSASVGDRVTITCRISENIYSNLAWYQQKPGKAPKLLIYAAINLADGVPSRFSGSGSGTDFTLTISSLQPEDFATYYCQHFWGTPFTFGQGTKLEIK
2 | – | binds | 8M24 Fab (L1H1 version) (Fab, V domains shown, Heavy chain entry includes a C-terminal hexa-histidine tag; also called 8M24L1 Light-chain + 8M24H1 Heavy-chain; SZP19057+19056) VH: EVQLVQSGAEVKKPGSSVKVSCKASGYTFTNYGINWVRQAPGQGLEWMGEIFPRSDNTFYAQKFQGRVTITADKSTSTAYMELSSLRSEDTAVYYCARKGRDYGTSHYFDYWGQGTTVTVSS VL: DIQMTQSPSSLSASVGDRVTITCRISENIYSNLAWYQQKPGKAPKLLIYAAINLADGVPSRFSGSGSGTDFTLTISSLQPEDFATYYCQHFWGTPFTFGQGTKLEIKR
3 | 0.11 nM | – | 8M24 humanized L2H2 (antibody, V domains shown, also called 8M24 humanized 2) VH: EVQLVQSGAEVKKPGSSVKVSCKASGYTFTNYGINWVRQAPGQGLEWIGEIFPRSDNTFYAQKFQGRATLTADKSTSTAYMELSSLRSEDTAVYYCARKGRDYGTSHYFDYWGQGTTLTVSS VL: DIQMTQSPSSLSASVGDRVTITCRISENIYSNLAWYQQKPGKAPKLLVYAAINLADGVPSRFSGSGSGTDFTLTISSLQPEDFGTYYCQHFWGTPFTFGQGTKLEIK
